Laboratory results: patent US20190276531A1 (SYMPHOGEN A S, published 2019)

T1: cynomolgus TIM-3 ECD fused C-terminally to human IgG1 Fc (made in-house, ExpiCHO) (cynomolgus monkey (Macaca …))
T1 construct: whole entry named
T1 chain: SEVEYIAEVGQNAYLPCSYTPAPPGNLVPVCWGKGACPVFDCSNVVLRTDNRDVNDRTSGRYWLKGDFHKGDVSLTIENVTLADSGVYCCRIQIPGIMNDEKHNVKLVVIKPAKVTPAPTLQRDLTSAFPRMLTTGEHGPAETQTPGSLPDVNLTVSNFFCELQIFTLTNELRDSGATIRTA


Legend:
[1] = biological target: T1, cynomolgus TIM-3 ECD fused C-terminally …; test: SPR (IBIS MX96); TIM-3 ECD-Fc captured on anti-human IgG Fc sensor, Fab injected 1-100 nM; 1:1 Langmuir fit
[2] = biological target: T2, human TIM-3 Fc fusion antigen (Sino Biologicals) (human, UniProt Q8TDQ0 22-202); test: ELISA; TIM-3 Fc fusion coated at 1 µg/ml, antibody titrated 2-fold from 1000 nM, HRP secondary
T2 construct: Bought; also called human TIM-3 ECD; not shown: Fc part of the bought fusion protein, not described

[3] = biological target: T3, R-PE-labeled human TIM-3-Fc chimera protein (R&D Systems) (human, UniProt Q8TDQ0 22-200, conjugated to R-phycoerythrin (R-PE), sites not stated); test: flow cytometry competition: R-PE-labelled TIM-3-Fc pre-mixed with titrated antibody, then binding to phosphatidylserine-positive apoptotic Jurkat cells (MFI); blocked ligand: phosphatidylserine; unit taken from the axis log(Concentration) µg/ml
T3 construct: Bought; also called TIM-3-PE; soluble TIM-3-Fc; Fc part of the bought chimera not given, not described

[4] = biological target: T4, monomeric human TIM-3 ECD antigen (Acro Biosystems) (human, UniProt Q8TDQ0 22-202); test: SPR (IBIS MX96); antibody captured on anti-human IgG Fc sensor, monomeric human TIM-3 ECD injected 2-100 nM; 1:1 Langmuir fit
T4 construct: Bought; also called soluble monovalent TIM-3 antigen (Acro Biosystems, China)

| Binder | EC50 [2] [nM] | other results |
| --- | --- | --- |
| Fab 20131 (Fab, V domains shown, not shown: cleavage site not s) VH: QVQLQQSGGGLVQPGGSLRLSCAASGFTLSSYAMSWVRQAPGKGLEWVSGISGSGGSTYNADSVKGRFTISRDNSKNTLFLQMNSLRAEDTAVYYCAKIFGSYYFDYWGQGTLVTVSS VL: not shown |  | Kd [1]: 22 nM |
| antibody 19324 (antibody, V domains shown) VH: QMQLQQSGGGLVQPGGSLRLSCAASGFTVSSYAMSWVRQALGKGLEWVSGISGSGGSTYYADSVKGRFTISRDNSKNTLYLQMNSLRAEDTAVYYCAKIVGATHFDYWGQGTLVTVSS VL: not shown | 0.73 |  |
| antibody 20185 (antibody, V domains shown) VH: QVQLVESGGGLVRPGGSLRLSCAVSGFTFSSYAMSWVRQAPGKGLEWVSGISGSGGSTYNADSVKGRFTISRDNSKNTLYLQMNSLRAEDTAVYYCAKIFGSYYFDYWGQGTLVTVSS VL: not shown | 0.17 |  |
| antibody 20300 (antibody, V domains shown) VH: QVQLQQSGGGLVHPGGSLRLSCAASGFTVDTYAMTWVRQAPGKGLEWVSGISGSGGSTYYADSVKGRFTISRDNSKNTLYLQMNSLRDEDTAVYYCAKIVGVTHFDYWGQGTLVTVSS VL: not shown | 1.13 |  |
| antibody 19416 (antibody, V domains shown) VH: QVQLVESGPGLVKPSQTLSLTCTVSGGSINSGGYYWSWIRQHPGKGLEWIGYIYYSGSIYYNPSLRSRLTISVDTSKNQFSLKLSSVTAADTAVYYCATPYYYGSGSYGDYWGQGTLVTVSS VL: DIQMTQSPATLSLSPGERATLSCRASQSVNNYLAWYQQKPGQAPRLLIYDASNRATGIPARFSGSGSGTDFTLTISSLEPEDFAVYYCQQRSNWPITFGQGTRLEIK | 0.2 |  |
| antibody 19568 (antibody, V domains shown) VH: QMQLQESGPGLVKPSQTLSLTCTVSGGSISSVGYYWNWIRQHPGKGLEFIGYIYYSGSIYYNPSLKSRVTISVDTSKNQFSLKLSSVTAADTALYYCASVGIVGASYFEYWGQGTLVTVSS VL: EIVMTQSPATLSLSPGERATLSCRASQSVSSYLAWYQQKPGQAPRLLIYDASNRATGIPARFSGSGSGTDFTLTISSLEPEDFAVYYCQQRSNWPITFGQGTRLEIK | 0.38 |  |
| antibody 20362 (antibody, V domains shown) VH: QVTLKESGPGLVKPSQTLSLTCTVSGGSISSGGHYWSWIRQHPGKGLEWIGYISYSGSTYYNPSLKSRLTISVDTSKNQFSLKLSSVTAADTAVYYCATAYYDILTGYPFDYWGQGTLVTVSS VL: EIVMTQSPATLSLSPGERATLSCRASQSVSSYLAWYQQKPGQAPRLLIYDASDRATGIPARFSGSGSGTDFTLTISSLEPEDFAVYYCQQRSNWPITFGQGTRLEIK | 0.26 |  |
| antibody 20621 (antibody, V domains shown) VH: QVQLQQSGPGLVKPSQTLSLTCTVSGGSISSGGYYWSWIRQHPGKGLEWIGYISYSGSIYYNPSLKSRVTISVDTSKNQFSLKLSSVTATDTAVYYCATAYYDLLTGYPFDYWGQGTLVTVSS VL: EIVMTQSPATLSLSPGERATLSCRASQSVSSYLAWYQQKPGQAPRLLIYDASNRATGIPARFSGSGSGTDFTLTISSLEPEDFAVYYCQQRSNWPITFGQGTRLEIK | 0.22 |  |
| antibody 15086.17145 (antibody, human IgG2, kappa) heavy: QVQLQESGPGLVKPSQTLSLTCTVSGGSISSGGYYWSWTRQHPGMGLEWIGYISYSGSIYYTPSLKSRLTISVDTSKNQFSLKLSSVTAADTAVYYCASLDSWGSNRDYWGQGTLVTVSSASTKGPSVFPLAPCSRSTSESTAALGCLVKDYFPEPVTVSWNSGALTSGVHTFPAVLQSSGLYSLSSVVTVPSSNFGTQTYTCNVDHKPSNTKVDKTVERKCCVECPPCPAPPVAGPSVFLFPPKPKDTLMISRTPEVTCVVVDVSHEDPEVQFNWYVDGVEVHNAKTKPREEQFNSTFRVVSVLTVVHQDWLNGKEYKCKVSNKGLPAPIEKTISKTKGQPREPQVYTLPPSREEMTKNQVSLTCLVKGFYPSDIAVEWESNGQPENNYKTTPPMLDSDGSFFLYSKLTVDKSRWQQGNVFSCSVMHEALHNHYTQKSLSLSPGK light: not shown | 0.125 | IC50 [3]: 0.651 µg/mL; Kd [4]: 19 nM |
